Data set [1] concerns the target T1, AtPOT1a OB1 (Arabidopsis thaliana, UniProt Q56Y52 1-158).
T1 sequence: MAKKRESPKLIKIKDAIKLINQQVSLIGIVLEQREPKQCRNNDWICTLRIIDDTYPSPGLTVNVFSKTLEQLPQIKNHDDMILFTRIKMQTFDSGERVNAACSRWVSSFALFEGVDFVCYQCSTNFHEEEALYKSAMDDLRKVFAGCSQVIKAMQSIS
The data set can be described thus: EMSA. (In general: In EMSA bound probe runs differently from free probe, usually more slowly.)

The target of data set [2] is T1, AtPOT1a OB1. Briefly: EMSA. The source holds these as a separate data set.
Data set [3] addresses T1, AtPOT1a OB1. Briefly: competition.
The target in data set [4] is T2, AtPOT1b OB1 V63F (Arabidopsis thaliana, UniProt Q6NKX5 1-159, V63F).
T2 sequence: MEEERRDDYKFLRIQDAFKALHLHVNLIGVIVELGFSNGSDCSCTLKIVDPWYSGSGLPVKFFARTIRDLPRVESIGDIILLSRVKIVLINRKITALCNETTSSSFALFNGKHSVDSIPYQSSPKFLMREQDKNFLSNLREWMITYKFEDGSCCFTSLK
Briefly: EMSA.

The target in data set [5] is T3, AtPOT1a OB1 F65A (Arabidopsis thaliana, UniProt Q56Y52 1-158, F65A).
T3 sequence: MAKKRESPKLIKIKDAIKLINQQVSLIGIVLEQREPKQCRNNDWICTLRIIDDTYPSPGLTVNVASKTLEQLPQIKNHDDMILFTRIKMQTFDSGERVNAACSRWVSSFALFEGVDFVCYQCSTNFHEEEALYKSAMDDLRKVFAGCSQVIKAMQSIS
The data set can be described thus: EMSA.

Data set [6] has as its target T4, AtPOT1b OB1 (Arabidopsis thaliana, UniProt Q6NKX5 1-159).
T4 sequence: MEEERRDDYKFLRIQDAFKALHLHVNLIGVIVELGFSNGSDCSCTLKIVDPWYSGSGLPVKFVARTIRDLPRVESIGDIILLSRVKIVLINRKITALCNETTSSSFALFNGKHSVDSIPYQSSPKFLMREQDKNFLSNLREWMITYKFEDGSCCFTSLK
The data set can be described thus: EMSA.

Data set [7] addresses T1, AtPOT1a OB1. Briefly: EMSA. This is another data set of the same source.
The target in data set [8] is T1, AtPOT1a OB1. Briefly: EMSA. This is another data set of the same source.

Experimental findings from PMC5175356 are described below.

Where two headings read alike, the source gives them in different places.

For orientation: Kd means the constant that tells how readily two partners part at equilibrium. A higher Kd goes with lower affinity. On to TTTAGGGTTTAGGG (ssDNA) [(TTTAGGG)2], for which, in data set [1], the Kd was around 1000 nM.
Regarding TTTAGGG (ssDNA), the binding result in data set [2] is reported as “no binding”.
As to TTAATTAACCCGGGGATCCGGCTTGATCAACGAATGATCC (ssDNA) [NS DNA], in data set [3], the binding signal is 10 % reduction of binding.
Turning to TTTAGGGTTTAGGGTTTAGGGTTTAGGGTTTAGGG (ssDNA) [(TTTAGGG)5], the binding result is given as “binds” in data set [4], “no binding” in data set [5] and “no binding” in data set [6]. The molecule further showed a dissociation constant (Kd) in data set [1] of 230 ± 30 nM.
Turning to TTAGGGTTTAGG (ssDNA) [12-mer telomere], the binding result in data set [7] is given as “binds”.
Consider UUUAGGGUUUAGGGUUUAGGGUUUAGGGUUUAGGG (ssRNA) [(UUUAGGG)5], for which, in data set [3], the binding signal was 10 % reduction of binding.
Take TAGGGTTTAGG (ssDNA) [minimal binding site 11-mer]: the binding result in data set [8] is “binds”.
